Test results from patent publication US11673947B2, “Target tissue-specific antigen-binding molecule” (Chugai Seiyaku Kabushiki Kaisha, priority 2012, dated 2023).

What was measured:
[1] = molecular target: T1, hIL-6R (Homo sapiens, UniProt P08887); assay: IgG ELISA, binding to hIL-6R in the presence or absence of each small molecule, amino acid or amino acid metabolite
T1 sequence (P08887 20-355 limits assumed): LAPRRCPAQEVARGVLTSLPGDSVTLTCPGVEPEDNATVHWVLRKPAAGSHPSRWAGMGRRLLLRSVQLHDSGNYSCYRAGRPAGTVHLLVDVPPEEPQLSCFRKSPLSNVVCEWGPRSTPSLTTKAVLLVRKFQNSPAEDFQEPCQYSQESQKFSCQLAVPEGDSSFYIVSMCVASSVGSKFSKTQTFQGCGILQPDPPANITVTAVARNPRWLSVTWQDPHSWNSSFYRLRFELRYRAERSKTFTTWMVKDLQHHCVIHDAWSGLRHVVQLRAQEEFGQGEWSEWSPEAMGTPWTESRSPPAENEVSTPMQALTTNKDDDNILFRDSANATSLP
Protocol: Three types of antibodies obtained: 6RNMSC1-2_F02 and 6RNMSC1-3_G02, and GC413 were subjected to ELISA under the nine conditions described in Table 3. Meanwhile, each small molecule was appropriately prepared at the concentrations shown in Table 3 using the buffers indicated in Table 19. The antigen used was biotin-labeled hIL-6R.
First, a StreptaWell 96 microtiter plate (Roche) was coated at room temperature for one hour or more with 100 μl of PBS containing biotin-labeled hIL-6R. After washing with Wash buffer to remove unbound biotin-labeled hIL-6R from the plate, each well was blocked for one hour or more with 250 μl of Blocking Buffer. After Blocking Buffer was removed from each well, the purified IgGs were prepared to 2.5 μg/ml in Sample Buffer containing small molecules at the final concentrations shown in Table 3, and each was aliquoted at 100 μl into the plate. The plate was allowed to stand at room temperature for one hour to allow binding of each IgG to biotin-labeled hIL-6R in each well. After washing with Wash Buffer containing small molecules at the final concentrations shown in Table 3, an HRP-conjugated anti-human IgG antibody (BIOSOURCE) diluted with Sample Buffer containing the same small molecules was added to each well. The plate was incubated for one hour. Following wash with Wash Buffer containing each small molecule, the TMB single solution (ZYMED) was added to each well. The chromogenic reaction in the solution of each well was terminated by adding sulfuric acid. Then, the developed color was assessed by measuring absorbance at 450 nm.
6RNMSC1-2_F02 described in Example 14, which has antigen-binding activity in the presence of kynurenine, and negative control GC413 were subjected to ELISA under the seven conditions described in Table 18. Meanwhile, each small molecule was appropriately prepared at the concentrations shown in Table 18 using the buffers indicated in Table 4. The antigen used was biotin-labeled hIL-6R. ELISA was carried out using the method described in Example 11.

[2] = molecular target: T2, human IL6 receptor (IL-6R) (Homo sapiens, UniProt P08887); assay: Biacore T200, interaction of 6RNMSC1-2_F02 with human IL6 receptor with or without kynurenine; type: binding; settings: 25° C.
T2 sequence (P08887 20-355 limits assumed): T1 sequence (P08887 20-355 limits assumed)
From the text: Biacore T200 (GE Healthcare) was used to analyze the interaction of 6RNMSC1-2_F02 with human IL6 receptor (IL-6R) in antigen-antibody reaction. Sensor chip CM5 (GE Healthcare) was immobilized with an appropriate amount of protein A (Invitrogen) by amine coupling. The antibody of interest was captured by the chip to allow interaction with IL-6R as an antigen. The running buffer used was 20 mmol/1 ACES, 150 mmol/l NaCl, 0.05% (w/v) Tween20, pH 7.4. The interaction with the antigen IL-6R was assayed at 25° C. The buffers used to dilute IL-6R were the running buffer itself, and a buffer prepared by adding 100 μmol/l kynurenine to the running buffer, and in addition a buffer prepared as a control by adding 10 mmol/l ATP to the running buffer.
A diluted IL-6R solution and a running buffer as a blank were injected at a flow rate of […] for one minute to allow interaction of IL-6R with 6RNMSC1-2_F02 captured on the sensor chip. Then, the running buffer was injected at a flow rate of 10 μl/min for one minute. After observation of IL-6R dissociation from the antibody, 10 mmol/l glycine-HCl (pH 1.5) was injected at a flow rate of 30 μl/min for 30 seconds to regenerate the sensor chip. The dissociation constant KD (M) of 6RNMSC1-2_F02 was calculated for IL-6R based on the association rate constant ka (1/Ms) and dissociation rate constant kd (1/s), both of which are kinetic parameters calculated from the sensorgram obtained by the measurement. Each parameter was calculated using the Biacore T200 Evaluation Software (GE Healthcare).
The running buffers used were 20 mmol/1 ACES, 150 mmol/l NaCl, 0.05% (w/v) Tween20, pH 7.4, and 20 mmol/1 ACES, 150 mmol/l NaCl, 0.05% (w/v) Tween20, pH 7.4, 100 μmol/l kynurenine, and assay was carried out at 25° C. IL-6R was immobilized onto Sensor chip CM5 by amine coupling; and 6RNMSC1-2_F02 was diluted to 5 μg/ml with 20 mmol/1 ACES, 150 mmol/l NaCl, 0.05% (w/v) Tween20, pH 7.4, containing 100 μmol/l kynurenine, and it was interacted as an analyte for 180 seconds. Then, the dissociation of […] was monitored under each running buffer condition. In order to compare the degree of dissociation between the respective running buffer conditions, the values were normalized by taking as 100 the amount of 6RNMSC1-2_F02 bound to IL-6R in the presence of 100 μmol/l kynurenine and compared.
Next, Biacore T200 (GE Healthcare) was used to assess the effect of kynurenine concentration on the antigen-antibody reaction between 6RNMSC1-2_F02 and IL-6R. The running buffer used was 20 mmol/1 ACES, 150 mmol/l NaCl, 0.05% (w/v) Tween20, pH 7.4. The antigen-antibody reaction between 6RNMSC1-2_F02 and human IL-6R was assayed at 25° C. IL-6R was immobilized onto sensor chip CM5 by amine coupling; and 6RNMSC1-2_F02 was diluted to 1 μg/ml with 20 mmol/l ACES, 150 mmol/l NaCl, 0.05% (w/v) Tween20, pH 7.4 containing various concentrations of kynurenine, and it was allowed to interact as an analyte for 180 seconds to observe changes in the amount of binding.

B1: 6RNMSC1-2_F02: antibody that binds to hIL-6R in the presence of kynurenine; SEQ ID NOs: 86 and 87 (antibody, listed as Homo sapiens, V domains shown)
VH: QVQLVQSGAEVKKPGSSVKVSCKASGGTFSSYAISWVRQAPGQGLEWMGGIIPIFGTANYAQKFQGRVTITADESTSTAYMELSSLRSEDTAVYYCARDAPVVARPRGAFDIWGQGTMVTVSS
VL: DIVMTQTPLSSPVTLGQPASISCRSSQSLVHSDGNTYLSWLQQRPGQPPRLLIHEISNRFSGVPDRFSGSGAGTNFTLKISRVEAEDVGVYYCMQATQFPRTFGQGTKVEIK
[1]; Table 18: condition 5 (3-hydroxykynurenine solution)
  absorbance under condition 5 compared to condition 1: the same high absorbance
[1]; Table 18: condition 7 (absence of small molecules) vs condition 1 (kynurenine solution)
  absorbance under condition 7 as compared to condition 1: markedly lower
[1]; Table 18: remaining conditions, incl. tryptophan
  absorbance under other conditions: markedly lower
[1]; condition 7 (100 μM kynurenine)
  absorbance under condition 7 compared to condition 8: the same
[1]; condition 9 (in the absence of small molecules) vs condition 8 (complete small molecule cocktail solution)
  absorbance under condition 9 as compared to condition 8: markedly lower
[1]; remaining conditions of Table 3
  absorbance under other conditions: markedly lower
[2]; 1 μmol/l IL-6R, in the absence of kynurenine
  IL-6R binding (sensorgram): not detectable
[2]; 1 μmol/l IL-6R, in the presence of 100 μmol/l kynurenine
  binding to IL-6R (sensorgram): binds to IL-6R
[2]; IL-6R immobilized, antibody as analyte for 180 seconds
  effect of kynurenine concentration on amount bound to IL-6R: the higher the concentration of kynurenine serving as a switch, the greater the amount of 6RNMSC1-2_F02 bound to IL-6R
[2]; bound with 100 μmol/l kynurenine, then buffer without kynurenine, IL-6R immobilized
  dissociation from IL-6R: rapidly dissociates from IL-6R in the absence of kynurenine
[2]; in the presence of 100 μmol/l kynurenine, read-out: dissociation constant KD
  Kd: 1500 nM
